Kd data for two molecules are collected here from article PMC10546976.

Series [1] has as its system neuPABP (PABPC1L2). The series is described as follows: EMSA. The settings on record: […] (100 nM), 1 h at 30 C, pH not stated.
Series [2] has as its target PABPC1 (UniProt P11940 1-636). The series is described as follows: EMSA.

PABPC1, sequence (P11940 whole entry): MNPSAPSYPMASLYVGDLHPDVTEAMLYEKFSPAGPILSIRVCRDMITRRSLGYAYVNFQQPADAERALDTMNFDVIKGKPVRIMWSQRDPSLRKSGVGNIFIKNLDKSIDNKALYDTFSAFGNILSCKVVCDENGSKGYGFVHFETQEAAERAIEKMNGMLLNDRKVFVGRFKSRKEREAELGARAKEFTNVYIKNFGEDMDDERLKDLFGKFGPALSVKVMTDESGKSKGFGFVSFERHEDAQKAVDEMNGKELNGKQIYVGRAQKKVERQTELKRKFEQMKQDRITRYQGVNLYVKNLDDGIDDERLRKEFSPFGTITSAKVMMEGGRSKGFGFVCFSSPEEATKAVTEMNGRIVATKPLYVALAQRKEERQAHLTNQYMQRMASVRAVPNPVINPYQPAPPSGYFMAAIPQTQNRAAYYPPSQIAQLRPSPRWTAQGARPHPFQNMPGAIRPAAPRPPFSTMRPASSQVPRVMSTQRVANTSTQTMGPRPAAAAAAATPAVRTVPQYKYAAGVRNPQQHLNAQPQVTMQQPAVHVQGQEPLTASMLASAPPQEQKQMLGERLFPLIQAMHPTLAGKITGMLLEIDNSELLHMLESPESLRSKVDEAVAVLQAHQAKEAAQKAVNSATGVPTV

AAAAAAAAAAAAAAAAAAAAAAAAA [oligo(A)25] yielded an equilibrium dissociation constant (Kd) in series [1] of 50 nM.
In series [2], AAAAAAAAAAAAAAAAAAAAAAAAA (ssRNA) [oligo(A)25] yielded a dissociation constant Kd of roughly 50 nM.
